Experimental data published in patent US20080015165A1, “NOVEL POLYPEPTIDE” (KYOWA HAKKO KOGYO CO., LTD., priority 1998, published 2008).

Legend:
[1] = test system: Namalwa cells; experiment: Indirect fluorescent antibody staining of Namalwa cells expressing human Fuc-TIV or Fuc-TIX (VIM-2 and Le^x sugar chains); format: cell-based
Procedure: Using an anti-VIM-2 sugar chain antibody (anti-CDw65 antibody, manufactured by Serotec) and anti-Le^x sugar chain antibodies [73-30 (manufactured by […] CORPORATION) and anti-CD15 antibody (C3D-1, manufactured by Dako)], indirect fluorescent antibody staining was performed for Namalwa cells expressing human Fuc-TIV or human Fuc-TIX, and for Namalwa cells transfected with the control vector pAMo, which were constructed in Example 9. The VIM-2 sugar chain is a sugar chain having the structure consisting of Galβ1-4GlcNAcβ1-3Galβ1-4(Fucα1-3)GlcNAc on non-reduced terminal of a sugar chain.
Indirect fluorescent antibody staining was performed according to the method described in Example 1 (3). Anti-VIM-2 sugar chain antibodies, 73-30 and C3D-1 were used after dilution at 1:50, 1:100, and 1:50.

[2] = Enzyme activity for a poly-N-acetyllactosamine sugar chain, Namalwa cell extract, HPLC; format: biochemical
Description: Using a poly-N-acetyllactosamine sugar chain, it was examined that to which GlcNAc in the sugar chains, human Fuc-TIX and 5 types of human α1,3-fucosyltransferase (Fuc-TIII, Fuc-TIV, Fuc-TV, Fuc-TVI, and Fuc-TVII) that had been cloned so far transferred fucose.
Control plasmid (pAMo) and the human Fuc-TIX expression plasmid pAMo-FT9 were introduced into Namalwa cells according to the method shown in Example 1 (3), thereby obtaining stable transformants.
Namalwa cells expressing each of the other 5 types of human α1,3-fucosyltransferases (Fuc-TIII, Fuc-TIV, Fuc-TV, Fuc-TVI, and Fuc-TVII) were obtained according to the previous report (Glycoconjugate J., 13, 802-812, Biochem. Biophys. Res. Commun., 237, 131-137, 1997).
The resultant transformants (about 1×10^7) were collected in microtubes (1.5 ml, manufactured by Eppendolf), followed by centrifugation at 550×g for 7 minutes to collect the cells.
The collected cells were washed with 0.9 ml of PBS. The washed cells were suspended in 100 μl of a solution which consisted of 20 mM HEPES (pH 7.2) and 1% TrironX-100, then allowed to stand at 4° C. for 10 minutes. Subsequently the cells were disrupted using a ultrasonicator (Bioruptor; manufactured by COSMO BIO CO., LTD.)
After disruption of the cells, each supernatant was obtained by centrifugation at 550×g for 7 minutes and used as an enzyme sample. A poly-N-acetyllactosamine sugar chain (Galβ1-4GlcNAcβ1-3Galβ1-4GlcNAcβ1-3Galβ1-4GlcNAc) consisting of 6 sugars was fluorescently labeled with 2-aminobenzamide to make a sugar chain (Galβ1-4GlcNAcβ1-3Galβ1-4GlcNAcβ1-3Galβ1-4GlcNAc-2AB: abbreviated as S in FIGS. 13 and 15, and table 3), which was used as a substrate
Florescent labeling was performed using a Signal™ 2-AB glycan labeling kit (manufactured by Oxford GlycoScience). A poly-N-acetyllactosamine sugar chain (Galβ1-4GlcNAcβ1-3Galβ1-4GlcNAcβ1-3Galβ1-4GlcNAc) was prepared according to WO98/03524.
Samples were allowed to react in 20 μl of an assay solution [50 mM cacodylate (pH 6.8), 5 mM ATP, 10 mM L-fucose, 75 μM […] (manufactured by SIGMA), 25 mM MnCl2, 15 μM fluorescently labeled sugar chain substrate, 6 μl of the cell lysate above] at 37° C. for 2 hours, followed by treatment at 100° C. for 3 minutes to stop the reaction. Next 200 μl of water was added to the samples, and the supernatant was obtained by centrifugation at 10,000×g for 5 minutes. Using an aliquot of the supernatant (10 μl), products were analyzed by HPLC under the following conditions.
HPLC: • Column—TSK-gel ODS-80TsQA column (4.6×250 mm; TOSOH CORPORATION) • Eluate—0.02 M ammonium acetate (pH 4.0) containing 7% methanol • Elution temperature—50° C. • Flow rate—1.0 ml/min. • Detection—Fluorescence spectrum photometer FB-920 (manufactured by JASCO Corporation) (excitation wavelength: 330 nm, radiation wavelength: 420 nm)

[3] = relative activity with the activity for P1 assumed to be 1
[4] = substrate S, relative value, total of products P1, P2 and P3 by each enzyme = 100%

B1: Fuc-TIX: human Fuc-TIX, 359 amino acids (SEQ ID NO:2), α1,3-fucosyltransferase expressed from pAMo-FT9 in Namalwa cells (protein)
chain: MTSTSKGILRPFLIVCIILGCFMACLLIYIKPTNSWIFSPMESASSVLKMKNFFSTKTDYFNETTILVWVWPFGQTFDLTSCQAMFNIQGCHLTTDRSLYNKSHAVLIHHRDISWDLTNLPQQARPPFQKWIWMNLESPTHTPQKSGIEHLFNLTLTYRRDSDIQVPYGFLTVSTNPFVFEVPSKEKLVCWVVSNWNPEHARVKYYNELSKSIEIHTYGQAFGEYVNDKNLIPTISACKFYLSFENSIHKDYITEKLYNAFLAGSVPVVLGPSRENYENYIPADSFIHVEDYNSPSELAKYLKEVDKNNKLYLSYFNWRKDFTVNLPRFWESHACLACDHVKRHQEYKSVGNLEKWFWN
modifications: human
reactivity against the anti-Le^x sugar chain antibodies [73-30 and anti-CD15 antibody] ([1]; Namalwa cells expressing Fuc-TIX compared with those expressing Fuc-TIV): greater | reactivity against the anti-VIM-2 sugar chain antibody ([1]; compared to Namalwa cells transfected with pAMo): slight increase | Enzymatic activity, substrate S, product P1 [2, 3]: 7.2 | Enzymatic activity, substrate S, product P2 [2, 3]: 1.6 | Enzymatic activity, substrate S, product P3 [2, 3]: 0.7 | Production (%) P1 [2, 4]: 82.7% | Production (%) P2 [2, 4]: 13.4% | Production (%) P3 [2, 4]: 3.9%
